Results published in patent US20160017348A1 (published 2016).

T1: H3(1-15)K9me2 peptide (UniProt P59226 2-16, dimethyl-lysine at K9)
T1 peptide: ARTKQTARKSTGGKA


Legend:
H3(1-15)K9me2 peptide [1] = target: T1, H3(1-15)K9me2 peptide; assay: ITC; FIG. 3B
H3(1-15)K9me2 peptide [2] = target: T1, H3(1-15)K9me2 peptide; assay: ITC; FIG. 3A
H3K4me2 = assay: ITC; FIG. 3B
H4K20me2 = assay: ITC; FIG. 3B

| Kd (H3(1-15)K9me2 peptide [1]) [µM] | Kd (H3(1-15)K9me2 peptide [2]) [µM] | Kd (H3K4me2) [µM] | Kd (H4K20me2) [µM] | Binder |
| --- | --- | --- | --- | --- |
| 1.9 | 1.9 |  |  | SHH1 SAWADEE domain (residues 125-258) (other) ADLAFEAKSARDYAWYDVSSFLTYRVLRTGELEVRVRFSGFDNRHDEWVNVKTSVRERSIPVEPSECGRVNVGDLLLCFQEREDQALYCDGHVLNIKRGIHDHARCNCVFLVRYELDNTEESLGLERICRRPEE |
|  |  | 52.1 | 80.6 | SAWADEE domain (other) ADLAFEAKSARDYAWYDVSSFLTYRVLRTGELEVRVRFSGFDNRHDEWVNVKTSVRERSIPVEPSECGRVNVGDLLLCFQEREDQALYCDGHVLNIKRGIHDHARCNCVFLVRYELDNTEESLGLERICRRPEE |
